Assay results taken from PMC8546699, “Ehrlichia chaffeensis TRP120 Is a Wnt Ligand Mimetic That Interacts with Wnt Receptors and Contains a Novel Repetitive Short Linear Motif That Activates Wnt Signaling” (mSphere, 2021).

T1: recombinant, full-length TRP120 (rTRP120-FL) (Ehrlichia chaffeensis, UniProt Q2GI62 1-548)
T1 construct: Ehrlichia chaffeensis tandem repeat protein TRP120, full-length gene cloned upstream of a 6xHis tag; Thioredoxin fusion from the vector pBAD/Thio-TOPO; also called rTRP12-FL; source: E. coli TOP10, pBAD/Thio-TOPO, purified (His-tag purification resin); not shown: His6, C-terminal, kept
T1 sequence: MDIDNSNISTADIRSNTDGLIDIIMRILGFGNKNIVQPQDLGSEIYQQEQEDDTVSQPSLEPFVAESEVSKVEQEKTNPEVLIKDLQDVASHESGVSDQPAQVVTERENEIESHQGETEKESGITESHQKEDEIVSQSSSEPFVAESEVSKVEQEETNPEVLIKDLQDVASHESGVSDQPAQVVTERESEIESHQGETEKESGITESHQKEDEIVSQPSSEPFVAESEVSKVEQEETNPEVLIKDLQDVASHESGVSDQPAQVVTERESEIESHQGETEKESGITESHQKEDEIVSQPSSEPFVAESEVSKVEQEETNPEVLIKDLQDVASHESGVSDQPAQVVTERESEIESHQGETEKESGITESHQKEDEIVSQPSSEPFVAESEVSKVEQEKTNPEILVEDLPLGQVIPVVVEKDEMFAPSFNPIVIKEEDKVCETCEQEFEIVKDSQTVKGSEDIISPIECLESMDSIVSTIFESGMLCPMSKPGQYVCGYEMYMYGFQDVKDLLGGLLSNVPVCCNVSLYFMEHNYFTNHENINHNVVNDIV

B1: recombinant Fzd5 extracellular domain (rFzd5-ECD) (domain or fragment, UniProt Q13467 27-238, looked up)
chain: ASKAPVCQEITVPMCRGIGYNLTHMPNQFNHDTQDEAGLEVHQFWPLVEIQCSPDLRFFLCSMYTPICLPDYHKPLPPCRSVCERAKAGCSPLMRQYGFAWPERMSCDRLPVLGRDAEVLCMDYNRSEATTAPPRPFPAKPTLPGPPGAPASGGECPAGGPFVCKCREPFVPILKESHPLYNKVRTGQVPNCAVPCYQPSFSADERTFATFW
notes: Frizzled-5, recombinant extracellular domain (methods: 'cysteine-rich domain-truncated protein'); commercial Frizzled ECD proteins are often Fc chimeras and may be mouse (surmise); also called Fzd5-CRD; source: bought: R&D Systems

Key:
[1] = target: rTRP120-tandem repeat domain truncate construct (rTRP120-TRD) (Ehrlichia chaffeensis) (UniProt Q2GI62); assay: SPR; His-tagged rTRP120-FL or rTRP120-TRD (0.1 µM) captured on Ni-NTA sensor chip; rFzd-ECD 0 to 1,600 nM flowed over; Biacore T100; 100 mM NaPO4 pH 7.4, 400 mM NaCl, 40 µM EDTA, 0.005% Tween 20; 1:1 fit
[2] = target: T1, recombinant, full-length TRP120 …; assay: as above; conditions: both partners purified

Molecule	Kd [1] [µM]	Kd [2] [µM]
recombinant Fzd5 extracellular domain (rFzd5-ECD) (from UniProt Q13467 27-238) (domain or fragment)	1.35	
B1		46.3
